Experimental data taken from US20210214440A1 (Janssen / Centocor, published 2021).
Positions count from the first letter of the chain named.

B1: CD8B251 (antibody, human IgG1, kappa, V domains shown)
VH: QVQLKGSGPGLVQPSQSLSITCTVSGFSLTTYAVHWVRQSPGKGLEWLGVIWSGGSTDYNAAFISRLSISKDNSKSQVFFKMNSLQADDTAIYYCARHSYYHYNAMDNWGQGTSVTVSS
VL: DIKMTQSQKFMSTTVGDRVSITCKASQNVGTAVAWYQQKPGQSPKLLIYSASNRYTGVPDRFTGSGSGTDFTLTISNMQSEDLADYFCQQYSSYPFTFGSGTKLEIKR
notes: full-length human IgG1, kappa
B2: CD8B324 (antibody, human IgG1, kappa, V domains shown)
VH: QVQLQQPGADLVKPGASVKLSCKASGYTSTSHWIHWVKQRPGQGLEWIGNIYPGSSSTNYNEKFKRMATLTVDTSSSTVYMVLSSLTSDDSAVYYCARHSPGHRDYAMDYWGLGTSVTVSS
VL: B1 VL with K3V, S12P, Y49A, N77T, S93T, F96L, S100A, I106M
notes: full-length human IgG1, kappa
B3: CD8B248 (antibody, human IgG1, kappa, V domains shown)
VH: EVQLQQSGAELARPGASVKMSCKASGYTFTTYTMHWVKQRPGQGLEWIGYINPSSGYTKYNQKFTDKATLTADKSSSTAYMQLSSLTSEDSAVYYCARLWAYWGQGTLVTVSA
VL: DVVMTQTPLSLPVSLGDQASISCRSSQSLVHSSGNTYLHWYLQKPGQSPKLLIYKGSNRFSGVSDRFSGSGSGTDFTLKISRVEAEDLGVYFCSQSTHVPFTFGSGTKLEMKR
notes: full-length human IgG1, kappa
B4: CD8B245 (antibody, human IgG1, kappa, V domains shown)
VH: EFQLQQSGGGLVQPGGSLSLSCAAPGFTFTDYYMSWVRQSPGKALEWLALSRNKGNGYTTEYSASVKGRFTISRDNSQSILYLQMNVLRAEDSATYYCARTVTGTLFYYALDYWGQGTTVTVSS
VL: DIQMTQSPASLSASVGETVTITCRASENIYSYLAWYQQKQGKSPQFLVYNAKTLAAGVPSRFSGSGSGTQFSLKINRLQPEDFGTYYCQHHYGTPLTFGDGTRLEIKR
notes: full-length human IgG1, kappa
B5: CD8B347 (antibody, human IgG1, kappa)
heavy: not shown
light: DIQMTQSPASLSASVGETVTITCRASGNIHNYLAWYQQKQGKSPQLLVFNAETLADGVPSRFSGSGSGTQFSLKINSLQPEDFGTYYCQHFWNNPLTLGAGTKLELKRTVAAPSVFIFPPSDEQLKSGTASVVCLLNNFYPREAKVQWKVDNALQSGNSQESVTEQDSKDSTYSLSSTLTLSKADYEKHKVYACEVTHQGLSSPVTKSFNRGEC
notes: full-length human IgG1, kappa
B6: CD8B312 (antibody, human IgG1, kappa, V domains shown)
VH: QVQLQQPGADLVKPGASVKLSCKASGYTFTSFWMHWVKQRPGQGLEWIGNVDPSDSQTHYNQKFKDKATLTVDKSSNTAYMQLSSLTSEDSAVYYCARSTYYRYDGPFTYWGQGTTVTVSS
VL: DIVLTQSPATLSVTPGDSVSLSCRASQSINNNLHWYQQKSHESPRLLIKYTSQSISGIPSRFSGSGSGPDFTLSINSVETEDFGMYFCQQSNSWPLTFGGGTKLEIKR
notes: full-length human IgG1, kappa
B7: CD8B271 (antibody, human IgG1, kappa, V domains shown)
VH: DVQLQESGPGLVAPSQSLSITCTVSGFSLSIYSIHWVRQPPGKGLEWLGMIWGGGDTDYNSALKSRLSISKDNSESQVFLKMNSLQTDDTAMYYCARNPHYYGGTYEYFDVWGTGTTVTVSS
VL: DIQMTQTTSSLSASLGDRVTISCSASQGISNYLNWYQQKPDGTVKLLIYDTSILYSGVPSRFSGSGSGTDYSLTISNLEPEDVATYYCQQYSNLPYTFGSGTKLEIKR
notes: full-length human IgG1, kappa
B8: CD8B310 (antibody, human IgG1, kappa, V domains shown)
VH: QVQLKESGPGLVAPSQSLSITCTVSGFSLTNYAVHWVRQSPGKGLEWLGVIWTDGSTDYNAGFISRLSISKDNSKSQVFFKMNSLQADDTAIYYCARNNGYFPAFFAYWGQGTTVTVSS
VL: DVLMTQTPLSLPVSLGDQASISCRSSQTIVHSNGNTYLEWYLQKPGQSPKLLMYKVSNRFSGVPDRFGGSGSGTDFTLKISRVEAEDLGVYYCFQGSHAPFTFGSGTKLEIKR
notes: full-length human IgG1, kappa
B9: CD8B250 (antibody, human IgG1, kappa, V domains shown)
VH: B8 VH with T30S, A33V, G62A, T114L, S119A
VL: DIVMTQSQKFMSTSVGDRVSVTCKASQNVDTDITWYQQKPGQSPKALIYSASYRYSGVPDRFTGSGSGTDFTLTITNVQSEDLAEYFCQQYNSYPLTFGSGTKLEMKR
notes: full-length human IgG1, kappa
B10: CD8B273 (antibody, human IgG1, kappa, V domains shown)
VH: QVQLQQSGAELVKPGASVKLSCKASGYTFTEYTIHWVKQRSGQGLEWIGWFYPGTGSIKYNEKFKDKATLTADKSSHTVYMELSKLTSEDSAVYFCARHEDNHYYDGNSWFAYWGQGTLVTVSA
VL: DIQMTQSPASLSASVGETVTITCRASGNIHNYLAWFQQKQGKSPQLLVYNAKTLADGVPSRFSGSGSGTQYSLKINSLQAEDFGSYYCQHFWSTPYTFGSGTKLEIKR
notes: full-length human IgG1, kappa
B11: CD8B192 (antibody, human IgG1, kappa, V domains shown)
VH: QVQLQQSGPVLVKPGASVKMSCKASGYTFTDYYMNWVMQSHGKSLEWIGVINPYNGGTTYNQRFTGKATLTVDKSSSTAYMELNSLTSEDSAVYYCARNYGAMDSWGQGTSVTVSS
VL: B10 VL with F36Y, Y49S, S63G, A80P, S93I, Y96P, S100A, K103R
notes: full-length human IgG1, kappa
B12: CD8B186 (antibody, human IgG1, kappa, V domains shown)
VH: QVQLQQSGAELAKPGASVKMSCKASGYIFTSYWMHWVKQRPGQGLEWIGNINPSSGYAVYNQKFKDKATLTADQSSSTAYIQLNSLTSEDSAVYYCARRVFYGDSWFAYWGQGTSVTVSS
VL: B10 VL with I2V, T5I, F36Y, A80P, P95T, Y96W, S100G
notes: full-length human IgG1, kappa
B13: CD8B356 (antibody, human IgG1, kappa, V domains shown)
VH: DVQLQESGPGLVKPSQSLSLTCSVTGYSITSGYYWNWIRQFPGNKLEWMGYISYDGSNNYNPSLKNRISITRDTSKNQFFLKLNSVTTEDTATYYCVRNHGDAMDYWGQGTSVTVSS
VL: DIVLTQSQKFMSTTVGDRVSITCKASQNVGTAVAWYQQKPGQSPKLLIYSASYRYTGVPDRFTGSGSGTHFTLTISNMQSEDLADYFCQQYSSYLTFGSGTKLEIKR
notes: full-length human IgG1, kappa
B14: CD8B319 (antibody, human IgG1, kappa, V domains shown)
VH: QVQLKESGPELKKPGETVKISCKASGYSFTAYYMHWVKQSPEKSLEWIGEINPSAGGTTYNQKFKAKATLTVDKSSSTAFIQLKSLTSEDSAVYYCARWTNPFDYWGQGTTLTVSS
VL: B13 VL with L4M, M78I, S92N, S93N
notes: full-length human IgG1, kappa
B15: CD8B269 (antibody, human IgG1, kappa, V domains shown)
VH: B13 VH with Y106H, S112T, V113L
VL: B9 VL with S20R, D30G, I33V, T34A, T76S, N77D, N92K, S100A, M106L
notes: full-length human IgG1, kappa
B16: CD8B303 (antibody, human IgG1, kappa, V domains shown)
VH: QVQLKESGPGLVAPSQSLSITCTVSGFSLSIYSIHWVRQPPGKGLEWLGMIWGGGSTDYNSTLNSRLSIIKDNSKSQVFLKMNSLQTDDTAMYYCARNPHHYGGSTGAMDYWGQGTTVTVSS
VL: DVQMIQSPSSLSASLGGTVTITCKASQDIKKYMAWYQHKPGKGPRLLIHYTSSLQPGIPSRFSGSGSGRDYYFSISNLEPEDIATYFCLQYDNLFTFGSGTKLELKR
notes: full-length human IgG1, kappa
B17: CD8B182 (antibody, human IgG1, kappa, V domains shown)
VH: EVQLQQSGAALAKPGTSVKMSCKASGYTFTSYWMNWVRQRPGQGLEWIGAVNPTNYYTEYIQKFKDKAILTADKSSSTAYMHLSGLTSEDSAVYYCARSGLYNTNHLAWFAYWGQGTTVTVSS
VL: DIKMTQSPASLSASVGETVTITCRASENIHNYLAWYQQIQGKSPQLLVYNAKTLANGVPSRFSGSASGTQFSLTINSLQPEDFGSYYCQHFWTTPLTFGAGTKLELKR
notes: full-length human IgG1, kappa
B18: CD8B366 (antibody, human IgG1, kappa, V domains shown)
VH: EVQLQQSGPELVRPGASVKLSCTASGFNIKDDYIHWVKQRPEQGLEWIGRIDPANGNPRYAPKFQDKATLTADTSSNTAYLQLSSLTSEDTAVYYCARDDEGYYYFDVWGAGTSVTVSS
VL: DIKMTQSPSYLAASPGETITINCRASKSISKYLAWYQEKPGKTNKVLIYSGSTLQSGIPSRFSGSGSGTDFTLTISSLEPEDFAIYYCQQHNEYPLTFGDGTRLEIKR
notes: full-length human IgG1, kappa
B19: CD8B337 (antibody, human IgG1, kappa, V domains shown)
VH: QVTLKESGPGKVQPSQTLSLTCSFSGFSLSTSGMGVSWIRKPSGKGLEWLAHIFWDDDRRYKSSLKSRLTISKDTSSNQVFLMITSVDTADSATYYCARRVGYGDYAYFDVWGAGTTVTVSS
VL: DIQMTQYPASLSVSVGETVTITCRASENIYSDLAWYQQKQGKSPQLLVYAATNLADGVPSRFSGSGSGTQYSLKINSLQSEDFGNYYCQHFWGTPWTFGGGTKLEIKR
notes: full-length human IgG1, kappa
B20: CD8B350 (antibody, human IgG1, kappa, V domains shown)
VH: EVQLQQSGAELAKPGTSVKMSCKASGYTFAAYWINWLKQRPGQGLEWIGSINPSNGYTEYSQKFKDKAILTADKSSSTAYMQLSSLTSEDSAVYYCSRSGLYYTNHLAWCPYWGQGTTVTVSS
VL: DIVMTQSPASLSASVGETVTITCRASGNIHNYLAWYQQKQGKSPQVLVYNAETLADSVPSRFSGSGSGTQFSLKINSLQPEDFGNYYCQHFWNSPLTFGGGTKLEIKR
notes: full-length human IgG1, kappa

Biological target: T1, human CD8 on human pan T cells (human, UniProt P01732 22-235; P10966 22-210)
T1 construct: Native CD8 on the CD4-negative population of human pan T cells
T1 sequence (P01732 22-235, chain 1 of 2): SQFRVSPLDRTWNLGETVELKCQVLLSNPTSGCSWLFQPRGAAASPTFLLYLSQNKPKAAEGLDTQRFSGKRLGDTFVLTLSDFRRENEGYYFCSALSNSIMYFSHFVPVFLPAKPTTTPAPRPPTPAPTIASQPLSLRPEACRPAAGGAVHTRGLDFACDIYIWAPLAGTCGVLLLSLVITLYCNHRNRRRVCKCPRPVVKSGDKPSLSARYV
T1 sequence (P10966 22-210, chain 2 of 2): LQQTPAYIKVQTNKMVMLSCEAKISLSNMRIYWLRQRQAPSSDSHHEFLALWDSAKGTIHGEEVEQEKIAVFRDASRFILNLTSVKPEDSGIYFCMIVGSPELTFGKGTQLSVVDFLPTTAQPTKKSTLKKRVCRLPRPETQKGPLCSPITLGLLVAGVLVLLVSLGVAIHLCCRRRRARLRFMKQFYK
Assay: flow cytometry, 20 nM mAb on human pan T cells
Method: Secondary antibodies were A647-conjugated goat anti human IgG Fc antibody at 2 μg/mL, and A488-conjugated mouse anti-human CD4 at 1 μg/mL in staining buffer. Live cells were also gated based on OKT8 control mAb binding. Percent CD8 positive population was calculated by percentage of CD8-positive cell count/live cell count.

Going from B1 to B2, the “Cell Binding to Human PanT Signal/Background (of CD4 negative population)” value rises from 37 to 1610.

Going from B3 to B4, the “Cell Binding to Human PanT Signal/Background (of CD4 negative population)” value rises from 20 to 44.

First: B5
Second: B6
The “Cell Binding to Human PanT Signal/Background (of CD4 negative population)” value of the first is higher: 1200 for the first, 1090 for the second.

First: B7
Second: B8
The “Cell Binding to Human PanT Signal/Background (of CD4 negative population)” value of the first is higher: 911 for the first, 29 for the second.

Going from B9 to B10, the “Cell Binding to Human PanT Signal/Background (of CD4 negative population)” value rises from 61 to 938.

Compared with B11, B12 is higher in “Cell Binding to Human PanT Signal/Background (of CD4 negative population)” value: 22 for the first, 36 for the second.

Compared with B13, B14 is lower in “Cell Binding to Human PanT Signal/Background (of CD4 negative population)” value: 777 for the first, 16 for the second.

First: B15
Second: B16
The “Cell Binding to Human PanT Signal/Background (of CD4 negative population)” value of the first is lower: 26 for the first, 1180 for the second.

Going from B17 to B18, the “Cell Binding to Human PanT Signal/Background (of CD4 negative population)” value falls from 1490 to 318.

First: B19
Second: B20
The “Cell Binding to Human PanT Signal/Background (of CD4 negative population)” value of the first is higher: 1980 for the first, 537 for the second.
